Source: US10172953B2, “XTEN conjugate compositions and methods of making same” (Amunix Operating Inc., priority 2012, dated 2019)
Like-named read-outs stand apart in the source and are kept apart here. Numbered stars: 1 amine (or outer) side, 2 acyl side, 3 side chain; on linkers, the order of the positions; unused ones are H or OH. Square brackets hold non-standard residues; d marks the D form. Side chains are listed from the residue outwards. Peptide text beside a SMILES is read from it. * marks the point of attachment. Ethylenediamine = C(CN[*:2])N[*:1]; Hyp = O=C(O)[C@@H]1C[C@@H](O)CN1; Phg = N[C@H](C(=O)O)c1ccccc1; CO = O=C([*:1])[*:2]; Bn = c1ccc(C*)cc1

Columns and labels:
[1] = cited from earlier work
[2] = cited from earlier work; remark: listed apart in the source
[3] = Analytical size exclusion chromatography (apparent MW, hydrodynamic radius); type: physicochemical; conditions: for Apparent MW / RH (hydrodynamic radius): SEC; for Apparent Molecular Weight Factor: ratio of apparent molecular weight to calculated molecular weight
Method: Size exclusion chromatography analyses were performed on fusion proteins containing various therapeutic proteins and unstructured recombinant proteins of increasing length. […] Chromatogram profiles were monitored using OD214 nm and OD280 nm.

[4] = unmodified peptide (GLP-1: biological half-life)
[5] = unmodified peptide/protein, humans (oxyntomodulin: in human plasma; ghrelin: terminal half-life)
[6] = unmodified peptide/protein, humans/patients

C-peptide: human pancreatic protein, middle segment of proinsulin (SEQ ID NO: 556) (EAEDLQVGQVELGGGPGAGSLQPLALEGSLQ; listed as Homo sapiens)
half-life ([1]; unmodified peptide, humans): about 30 minutes

ghrelin: human hormone GSSFLSPEHQRVQQRKESKKPPAKLQPR (SEQ ID NO: 557) (listed as Homo sapiens)
half-life ([1]; human, in vivo): 10 to 30 min

oxyntomodulin: 37 amino acid peptide (SEQ ID NO: 552)
half-life ([1]; human, in vivo): ~12 min

POT4: synthetic cyclic peptide H-Ile-[Cys-Val-Val-Gln-Asp-Trp-Gly-His-His-Arg-Cys]-Thr-NH2, C3 complement inhibitor [reference compound]
circulating in vivo half-life ([2]; in vivo): 480 min

GLP-(7-37)OH: form of human glucagon like peptide-1 (HAEGTFTSDVSSTLEGQAALEFIAWLVKGRG; listed as Homo sapiens)
half-life [2, 4]: 3 to 5 min

relaxin
half-life [1, 5]: less than 10 min

IL-7: human interleukin encoded by the IL7 gene (SEQ ID NO: 562)
half-life [1, 6]: approximately 10 h

AC616: fusion: XTEN AE864, GLP2-2G
Apparent MW [3]: 1427 kDa
RH (hydrodynamic radius) [3]: 10 nm
Apparent Molecular Weight Factor [3]: 17.2

NCCCC[C@@H]1NC(=O)[C@@H](Cc2c[nH]c3ccccc23)NC(=O)[C@H](c2ccccc2)NC(=O)[C@@H]2C[C@@H](OC(=O)NCCN)CN2C(=O)[C@H](Cc2ccccc2)NC(=O)[C@H](Cc2ccc(OCc3ccccc3)cc2)NC1=O [Pasireotide, [(3S,6S,9S,12R,15S,18S,20R)-9-(4-aminobutyl)-3-benzyl-12-(1H-indol-3-ylmethyl)-2,5,8,11,14,17-hexaoxo-15-phenyl-6-[(4-phenylmethoxyphenyl)methyl]-1,4,7,10,13,16-hexazabicyclo[16.3.0]henicosan-20-yl] N-(2-aminoethyl)carbamate, reference compound] (cyclo([Hyp]([CO-Ethylenediamine])[Phg][dW]KY(Bn)F))
half-life [1, 6]: 720 to 1020 min

enfuvirtide
half-life [1, 6]: 228 min

CNP-22
half-life ([2]; unmodified peptide/protein (Fxa: plasma half-life)): 2.6 min

metreleptin: the commercially available form of leptin [reference compound]
half-life [1, 5]: 8 to 30 min

GHRH: 44-amino acid peptide hormone (SEQ ID NO: 542)
half-life [2, 4]: less than 15 minutes

B1: Endostatin: 20-kDa C-terminal fragment derived from type XVIII collagen (SEQ ID NO: 565) (protein, listed as Homo sapiens)
chain: HSHRDFQPVLHLVALNSPLSGGMRGIRGADFQCFQQARAVGLAGTFRAFLSSRLQDLYSIVRRADRAAVPIVNLKDELLFPSWEALFSGSEGPLKPGARIFSFDGKDVLRHPTWPQKSVWHGSDPNGRRLTESYCETWRTEAPSATGQASSLLGGRLLGQSAASCHHAYIVLCIENSFMTASK
half-life [1, 6]: 780 min

B2: AC398: fusion: XTEN AE288, FVII (protein)
chain: AVFVTQEEAHGVLHRRRRANAFLEELRPGSLERECKEEQCSFEEAREIFKDAERTKLFWISYSDGDQCASSPCQNGGSCKDQLQSYICFCLPAFEGRNCETHKDDQLICVNENGGCEQYCSDHTGTKRSCRCHEGYSLLADGVSCTPTVEYPCGKIPILEKRNASKPQGRIVGGKVCPKGECPWQVLLLVNGAQLCGGTLINTIWVVSAAHCFDKIKNWRNLIAVLGEHDLSEHDGDEQSRRVAQVIIPSTYVPGTTNHDIALLRLHQPVVLTDHVVPLCLPERTFSERTLAFVRFSLVSGWGQLLDRGATALELMVLNVPRLMTQDCLQQSRKVGDSPNITEYMFCAGYSDGSKDSCKGDSGGPHATHYRGTWYLTGIVSWGQGCATVGHFGVYTRVSQYIEWLQKLMRSEPRPGVLLRAPFPGSPGTSESATPESGPGSEPATSGSETPGTSESATPESGPGSEPATSGSETPGTSESATPESGPGTSTEPSEGSAPGSPAGSPTSTEEGTSESATPESGPGSEPATSGSETPGTSESATPESGPGSPAGSPTSTEEGSPAGSPTSTEEGTSTEPSEGSAPGTSESATPESGPGTSESATPESGPGTSESATPESGPGSEPATSGSETPGSEPATSGSETPGSPAGSPTSTEEGTSTEPSEGSAPGTSTEPSEGSAPGSEPATSGSETPGTSESATPESGPGTSTEPSEGSAPGSSS
Apparent MW [3]: 650 kDa
RH (hydrodynamic radius) [3]: 8.2 nm
Apparent Molecular Weight Factor [3]: 8.5

B3: AC404: fusion: XTEN AE864, FVII (protein)
chain: AVFVTQEEAHGVLHRRRRANAFLEELRPGSLERECKEEQCSFEEAREIFKDAERTKLFWISYSDGDQCASSPCQNGGSCKDQLQSYICFCLPAFEGRNCETHKDDQLICVNENGGCEQYCSDHTGTKRSCRCHEGYSLLADGVSCTPTVEYPCGKIPILEKRNASKPQGRIVGGKVCPKGECPWQVLLLVNGAQLCGGTLINTIWVVSAAHCFDKIKNWRNLIAVLGEHDLSEHDGDEQSRRVAQVIIPSTYVPGTTNHDIALLRLHQPVVLTDHVVPLCLPERTFSERTLAFVRFSLVSGWGQLLDRGATALELMVLNVPRLMTQDCLQQSRKVGDSPNITEYMFCAGYSDGSKDSCKGDSGGPHATHYRGTWYLTGIVSWGQGCATVGHFGVYTRVSQYIEWLQKLMRSEPRPGVLLRAPFPGSPGSPAGSPTSTEEGTSESATPESGPGTSTEPSEGSAPGSPAGSPTSTEEGTSTEPSEGSAPGTSTEPSEGSAPGTSESATPESGPGSEPATSGSETPGSEPATSGSETPGSPAGSPTSTEEGTSESATPESGPGTSTEPSEGSAPGTSTEPSEGSAPGSPAGSPTSTEEGTSTEPSEGSAPGTSTEPSEGSAPGTSESATPESGPGTSTEPSEGSAPGTSESATPESGPGSEPATSGSETPGTSTEPSEGSAPGTSTEPSEGSAPGTSESATPESGPGTSESATPESGPGSPAGSPTSTEEGTSESATPESGPGSEPATSGSETPGTSESATPESGPGTSTEPSEGSAPGTSTEPSEGSAPGTSTEPSEGSAPGTSTEPSEGSAPGTSTEPSEGSAPGTSTEPSEGSAPGSPAGSPTSTEEGTSTEPSEGSAPGTSESATPESGPGSEPATSGSETPGTSESATPESGPGSEPATSGSETPGTSESATPESGPGTSTEPSEGSAPGTSESATPESGPGSPAGSPTSTEEGSPAGSPTSTEEGSPAGSPTSTEEGTSESATPESGPGTSTEPSEGSAPGTSESATPESGPGSEPATSGSETPGTSESATPESGPGSEPATSGSETPGTSESATPESGPGTSTEPSEGSAPGSPAGSPTSTEEGTSESATPESGPGSEPATSGSETPGTSESATPESGPGSPAGSPTSTEEGSPAGSPTSTEEGTSTEPSEGSAPGTSESATPESGPGTSESATPESGPGTSESATPESGPGSEPATSGSETPGSEPATSGSETPGSPAGSPTSTEEGTSTEPSEGSAPGTSTEPSEGSAPGSEPATSGSETPGTSESATPESGPGTSTEPSEGSAPGSSS
Apparent MW [3]: 1900 kDa
RH (hydrodynamic radius) [3]: 10.1 nm
Apparent Molecular Weight Factor [3]: 14.7

B4: Glucagon-Y288: fusion protein of glucagon plus XTEN Y288 (protein)
chain: HSQGTFTSDYSKYLDSRRAQDFVQWLMNTGEGSGEGSEGEGSEGSGEGEGSEGSGEGEGGSEGSEGEGGSEGSEGEGGSEGSEGEGSGEGSEGEGGSEGSEGEGSGEGSEGEGSEGGSEGEGGSEGSEGEGSGEGSEGEGGEGGSEGEGSEGSGEGEGSGEGSEGEGSEGSGEGEGSGEGSEGEGSEGSGEGEGSEGSGEGEGGSEGSEGEGSEGSGEGEGGEGSGEGEGSGEGSEGEGGGEGSEGEGSGEGGEGEGSEGGSEGEGGSEGGEGEGSEGSGEGEGSEGGSEGEGSEGGSEGEGSEGSGEGEGSEGSGE
Apparent MW [3]: 370 kDa
RH (hydrodynamic radius) [3]: 7.0 nm
Apparent Molecular Weight Factor [3]: 12.9
